Data published in patent publication US20260217860A1 (BIOCYTOGEN PHARMACEUTICALS BEIJING, published 2026).

Tests used:
[1] = target: T1, monkey EGFR on CHO-S-fasEGFR cells (monkey, UniProt P55245 25-645); assay: flow cytometry, transfected CHO-S cells, 5 ug/mL
T1 construct: CHO-S cells transfected with vectors expressing fasEGFR
Description: (§1) The anti-EGFR/MUC1 bispecific antibodies (5 μg/mL) were added to the 96-well plate, and incubated at 4° C. for 30 min. […] For the negative control (NC), only cells were added and no antibodies were added.

[2] = target: T2, human MUC1 (484 amino acids) on CHO-S-hMUC1 (484AA) cells (human, UniProt P15941 24-1158); assay: flow cytometry, transfected CHO-S cells, 5 ug/mL
T2 construct: CHO cells transfected with vectors expressing 484 amino acids of human MUC1
Description: as §1

[3] = target: T3, monkey (Macaca fascicularis) MUC1 on CHO-S-fasMUC1 cells (monkey (Macaca fascicularis)); assay: flow cytometry, transfected CHO-S cells, 5 ug/mL
T3 construct: CHO-S cells transfected with vectors expressing fasMUC1; also called monkey MUC1
T3 chain: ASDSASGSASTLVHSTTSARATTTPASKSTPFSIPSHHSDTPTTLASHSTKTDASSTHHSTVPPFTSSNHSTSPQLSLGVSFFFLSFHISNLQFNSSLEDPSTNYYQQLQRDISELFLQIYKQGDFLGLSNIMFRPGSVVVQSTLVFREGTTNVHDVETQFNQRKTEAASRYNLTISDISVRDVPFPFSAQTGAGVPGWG
Description: as §1

[4] = target: T4, human EGFR on CHO-S-hEGFR cells (human, UniProt P00533 25-645); assay: flow cytometry, transfected CHO-S cells, 5 ug/mL
T4 construct: CHO-S cells transfected with vectors expressing hEGFR
Description: as §1

[5] = target: T5, His-tagged human EGFR protein (hEGFR-His, ACROBiosystems Inc., Cat #: EGR-H5222) (human, UniProt P00533 25-645); assay: SPR, Biacore 8K, 1:1 fit;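 also: His-tagged targets captured on the chip at roughly 100 RU, antibody analytes flowed at 1 µg/mL in HBS-EP+ pH 7.4, 50 s association, 400 s dissociation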
T5 construct: Bought protein; not shown: His tag

[6] = target: T6, His-tagged monkey MUC1 (fasMUC1-His) (monkey, UniProt Q29435 181-380, limits assumed); assay: SPR, Biacore 8K, 1:1 fit;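 also: His-tagged targets captured on the chip at roughly 100 RU, antibody analytes flowed at 1 µg/mL in HBS-EP+ pH 7.4, 50 s association, 400 s dissociation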
T6 construct: not shown: His tag
T6 chain: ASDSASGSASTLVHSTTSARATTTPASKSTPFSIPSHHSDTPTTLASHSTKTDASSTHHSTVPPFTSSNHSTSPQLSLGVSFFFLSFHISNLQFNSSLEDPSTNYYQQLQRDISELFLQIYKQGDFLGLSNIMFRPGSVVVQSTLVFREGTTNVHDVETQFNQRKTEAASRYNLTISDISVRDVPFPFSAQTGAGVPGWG

[7] = target: T7, His-tagged monkey EGFR protein (fasEGFR-His, ACROBiosystems Inc., Cat #: EGR-C52H1) (monkey); assay: SPR, Biacore 8K, 1:1 fit;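 also: His-tagged targets captured on the chip at roughly 100 RU, antibody analytes flowed at 1 µg/mL in HBS-EP+ pH 7.4, 50 s association, 400 s dissociation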
T7 construct: Bought protein
Description: Specifically, his-tagged proteins were diluted to 200 nM, with 1×HBS-EP+buffer (PH 7.4) and then injected into the Biacore™ 8K biosensor at 10 μL/min for about 50 seconds to achieve a desired protein density (e.g., about 100 response units (RU)). Purified antibodies at 1 μg/mL in 1× HBS-EP+buffer (PH 7.4) were then injected at 10 μL/min for 50 seconds.
Dissociation was monitored for 400 seconds. The chip was regenerated after the last injection of each titration with a glycine solution (pH 1.5) at 30 L/min for 30 seconds.

[8] = target: T8, His-tagged human MUC1 protein hMUC1(961-1152)-His (human, UniProt P15941 961-1152); assay: SPR, Biacore 8K, 1:1 fit;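 also: His-tagged targets captured on the chip at roughly 100 RU, antibody analytes flowed at 1 µg/mL in HBS-EP+ pH 7.4, 50 s association, 400 s dissociation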
T8 construct: also called hMUC(961-1152)-His; not shown: His tag

B1: E-9A6-M-11E8 (bispecific antibody)
heavy 1: not shown
heavy 2: QVQLVQSGGGVVQPGRSLRLSCAASGFTFSSYAMHWVRQAPGKGLEWVAVISDDGINKYYADSVKGRFTISRDNSKNTLYLQMNSLRAEDSAVYYCARALPTIFGVVMYFYYGLDVWGQGTTATVSSASTKGPSVFPLAPSSKSTSGGTAALGCLVKDYFPEPVTVSWNSGALTSGVHTFPAVLQSSGLYSLSSVVTVPSSSLGTQTYICNVNHKPSNTKVDKKVEPKSCDKTHTCPPCPAPELLGGPSVFLFPPKPKDTLMISRTPEVTCVVVDVSHEDPEVKFNWYVDGVEVHNAKTKPREEQYNSTYRVVSVLTVLHQDWLNGKEYKCKVSNKALPAPIEKTISKAKGQPREPQVCTLPPSREEMTKNQVSLSCAVKGFYPSDIAVEWESNGQPENNYKTTPPVLDSDGSFFLVSKLTVDKSRWQQGNVFSCSVMHEALHNHYTQKSLSLSPGK
light: not shown
notes: Knobs-into-holes bispecific with a common light chain; also called anti-EGFR/MUC1 bispecific antibody
[1]
  Percentage of Positive Cells (%): 23%
[2]
  Percentage of Positive Cells (%): 93.5%
[3]
  Percentage of Positive Cells (%): 45.1%
[4]
  Percentage of Positive Cells (%): 63.3%
[5]
  Kd: 5.54 nM
  koff: 0.00101 s⁻¹
  kon: 183000 M⁻¹ s⁻¹
[6]
  Kd: 40.5 nM
  koff: 0.0162 s⁻¹
  kon: 401000 M⁻¹ s⁻¹
[7]
  Kd: 5.44 nM
  koff: 0.00116 s⁻¹
  kon: 213000 M⁻¹ s⁻¹
[8]
  Kd: 9.99 nM
  koff: 0.00218 s⁻¹
  kon: 218000 M⁻¹ s⁻¹

B2: E-9F3-M-11E8 (bispecific antibody)
heavy 1: not shown
heavy 2: QVQLVQSGGGVVQPGRSLRLSCAASGFTFSSYAMHWVRQAPGKGLEWVAVISDDGINKYYADSVKGRFTISRDNSKNTLYLQMNSLRAEDSAVYYCARALPTIFGVVMYFYYGLDVWGQGTTATVSSASTKGPSVFPLAPSSKSTSGGTAALGCLVKDYFPEPVTVSWNSGALTSGVHTFPAVLQSSGLYSLSSVVTVPSSSLGTQTYICNVNHKPSNTKVDKKVEPKSCDKTHTCPPCPAPELLGGPSVFLFPPKPKDTLMISRTPEVTCVVVDVSHEDPEVKFNWYVDGVEVHNAKTKPREEQYNSTYRVVSVLTVLHQDWLNGKEYKCKVSNKALPAPIEKTISKAKGQPREPQVCTLPPSREEMTKNQVSLSCAVKGFYPSDIAVEWESNGQPENNYKTTPPVLDSDGSFFLVSKLTVDKSRWQQGNVFSCSVMHEALHNHYTQKSLSLSPGK
light: not shown
notes: as for B1
[1]
  Percentage of Positive Cells (%): 20.5%
[2]
  Percentage of Positive Cells (%): 94.2%
[3]
  Percentage of Positive Cells (%): 45.5%
[4]
  Percentage of Positive Cells (%): 58.8%
[5]
  Kd: 28.7 nM
  koff: 0.00203 s⁻¹
  kon: 70700 M⁻¹ s⁻¹
[6]
  Kd: 25.7 nM
  koff: 0.011 s⁻¹
  kon: 426000 M⁻¹ s⁻¹
[7]
  Kd: 28.7 nM
  koff: 0.00193 s⁻¹
  kon: 67100 M⁻¹ s⁻¹
[8]
  Kd: 2.63 nM
  koff: 0.000881 s⁻¹
  kon: 336000 M⁻¹ s⁻¹

B3: E-9H2-M-11E8 (bispecific antibody)
heavy 1: not shown
heavy 2: QVQLVQSGGGVVQPGRSLRLSCAASGFTFSSYAMHWVRQAPGKGLEWVAVISDDGINKYYADSVKGRFTISRDNSKNTLYLQMNSLRAEDSAVYYCARALPTIFGVVMYFYYGLDVWGQGTTATVSSASTKGPSVFPLAPSSKSTSGGTAALGCLVKDYFPEPVTVSWNSGALTSGVHTFPAVLQSSGLYSLSSVVTVPSSSLGTQTYICNVNHKPSNTKVDKKVEPKSCDKTHTCPPCPAPELLGGPSVFLFPPKPKDTLMISRTPEVTCVVVDVSHEDPEVKFNWYVDGVEVHNAKTKPREEQYNSTYRVVSVLTVLHQDWLNGKEYKCKVSNKALPAPIEKTISKAKGQPREPQVCTLPPSREEMTKNQVSLSCAVKGFYPSDIAVEWESNGQPENNYKTTPPVLDSDGSFFLVSKLTVDKSRWQQGNVFSCSVMHEALHNHYTQKSLSLSPGK
light: not shown
notes: Knobs-into-holes bispecific with a common light chain; also called anti-EGFR/MUC1 bispecific antibody; E-9H2-M-llE8
[1]
  Percentage of Positive Cells (%): 15.1%
[2]
  Percentage of Positive Cells (%): 94%
[3]
  Percentage of Positive Cells (%): 47%
[4]
  Percentage of Positive Cells (%): 49.3%
[5]
  Kd: 88.3 nM
  koff: 0.0157 s⁻¹
  kon: 178000 M⁻¹ s⁻¹
[6]
  Kd: 2.69 nM
  koff: 0.00105 s⁻¹
  kon: 389000 M⁻¹ s⁻¹
[7]
  Kd: 80.1 nM
  koff: 0.0173 s⁻¹
  kon: 215000 M⁻¹ s⁻¹
[8]
  Kd: 6.19 nM
  koff: 0.000571 s⁻¹
  kon: 92300 M⁻¹ s⁻¹

B4: E-6C4-M-11E8 (bispecific antibody)
heavy 1: not shown
heavy 2: QVQLVQSGGGVVQPGRSLRLSCAASGFTFSSYAMHWVRQAPGKGLEWVAVISDDGINKYYADSVKGRFTISRDNSKNTLYLQMNSLRAEDSAVYYCARALPTIFGVVMYFYYGLDVWGQGTTATVSSASTKGPSVFPLAPSSKSTSGGTAALGCLVKDYFPEPVTVSWNSGALTSGVHTFPAVLQSSGLYSLSSVVTVPSSSLGTQTYICNVNHKPSNTKVDKKVEPKSCDKTHTCPPCPAPELLGGPSVFLFPPKPKDTLMISRTPEVTCVVVDVSHEDPEVKFNWYVDGVEVHNAKTKPREEQYNSTYRVVSVLTVLHQDWLNGKEYKCKVSNKALPAPIEKTISKAKGQPREPQVCTLPPSREEMTKNQVSLSCAVKGFYPSDIAVEWESNGQPENNYKTTPPVLDSDGSFFLVSKLTVDKSRWQQGNVFSCSVMHEALHNHYTQKSLSLSPGK
light: not shown
notes: as for B1
[1]
  Percentage of Positive Cells (%): 18.3%
[2]
  Percentage of Positive Cells (%): 94%
[3]
  Percentage of Positive Cells (%): 48.2%
[4]
  Percentage of Positive Cells (%): 48.1%
[5]
  Kd: 91.8 nM
  koff: 0.0264 s⁻¹
  kon: 287000 M⁻¹ s⁻¹
[6]
  Kd: 25.7 nM
  koff: 0.0102 s⁻¹
  kon: 398000 M⁻¹ s⁻¹
[7]
  Kd: 79.3 nM
  koff: 0.0291 s⁻¹
  kon: 367000 M⁻¹ s⁻¹
[8]
  Kd: 2.66 nM
  koff: 0.00109 s⁻¹
  kon: 410000 M⁻¹ s⁻¹

B5: E-9D2-M-11E8 (bispecific antibody)
heavy 1: not shown
heavy 2: QVQLVQSGGGVVQPGRSLRLSCAASGFTFSSYAMHWVRQAPGKGLEWVAVISDDGINKYYADSVKGRFTISRDNSKNTLYLQMNSLRAEDSAVYYCARALPTIFGVVMYFYYGLDVWGQGTTATVSSASTKGPSVFPLAPSSKSTSGGTAALGCLVKDYFPEPVTVSWNSGALTSGVHTFPAVLQSSGLYSLSSVVTVPSSSLGTQTYICNVNHKPSNTKVDKKVEPKSCDKTHTCPPCPAPELLGGPSVFLFPPKPKDTLMISRTPEVTCVVVDVSHEDPEVKFNWYVDGVEVHNAKTKPREEQYNSTYRVVSVLTVLHQDWLNGKEYKCKVSNKALPAPIEKTISKAKGQPREPQVCTLPPSREEMTKNQVSLSCAVKGFYPSDIAVEWESNGQPENNYKTTPPVLDSDGSFFLVSKLTVDKSRWQQGNVFSCSVMHEALHNHYTQKSLSLSPGK
light: not shown
notes: as for B1
[1]
  Percentage of Positive Cells (%): 16.8%
[2]
  Percentage of Positive Cells (%): 93.8%
[3]
  Percentage of Positive Cells (%): 47%
[4]
  Percentage of Positive Cells (%): 50.1%
[5]
  Kd: 59.5 nM
  koff: 0.02 s⁻¹
  kon: 337000 M⁻¹ s⁻¹
[6]
  Kd: 19.1 nM
  koff: 0.00896 s⁻¹
  kon: 470000 M⁻¹ s⁻¹
[7]
  Kd: 52.2 nM
  koff: 0.0248 s⁻¹
  kon: 476000 M⁻¹ s⁻¹
[8]
  Kd: 2.79 nM
  koff: 0.000543 s⁻¹
  kon: 195000 M⁻¹ s⁻¹
